According to patent publication KR20220139244A (dated 2022):
Where two headings read alike, the source gives them in different places.

B1: No. 139 antibody (Full IgG) (antibody, V domains shown)
VH: QITLKESGPTLVKPTQTLTLTCSFSGFSLSTSGVGVGWIRQPPGKALEWLALIDWDDNKYHTTSLKTRLTISKDTSKNQVVLTMTNMDPVDTATYYCARIPGFLRYRNRYYYYGMDVWGQGTTVTVSS
VL: ELVLTQPPSVSAAPGQKVTISCSGSSSNIGNNYVSWYQQLPGTAPKLLIYDNNKRPSGIPDRFSGSKSGTSATLGITGLQTGDEADYYCGTWDSSLSAGVFGGGTELTVL
B2: No. 32 antibody (Full IgG; Table 3/4 numbering) (antibody, V domains shown)
VH: EVQLVQSGGGLIQPGGSLRLSCAASEFIVSSNYMTWVRQAPGKGLEWVSIIYPGGSTYYADSVKGRFTISRDNSKNTLYLRMNSLRAEDTAVYYCARDLPLTGTTLDYWGQGTLVTVSS
VL: not shown

What was measured:
Test in all cases: cell-based or functional assay
[1] = target: T1, SARS-CoV-2 spike D614 (pseudovirus) (SARS-CoV-2, UniProt P0DTC2 14-1273)
[2] = target: T1, SARS-CoV-2 spike D614 (pseudovirus); remark: listed apart in the source
[3] = target: T1, SARS-CoV-2 spike D614 (pseudovirus); remark: listed apart in the source
[4] = target: T1, SARS-CoV-2 spike D614 (pseudovirus); remark: listed apart in the source
[5] = target: T1, SARS-CoV-2 spike D614 (pseudovirus); remark: listed apart in the source

Binder	IC50 [1]	IC50 [2]	IC50 [3]	IC50 [4]	IC50 [5]
B1	0.378 ng/mL	0.35 ng/mL	0.535 ng/mL	0.535 ng/mL	
B2				4.34 ng/mL	4.34 ng/mL
